# Results reported in patent US20210161943A1, “PAK4 INHIBITORS AND METHODS OF USE” (THE REGENTS OF THE UNIVERSITY OF CALIFORNIA, priority 2018, published 2021).
# Legend:
# [1] = system: MC38 WT tumors; experiment: Tumor growth of MC38 WT colon adenocarcinoma tumors in C57BL/6 mice; format: in vivo; conditions: for tumor growth versus anti-PD-1 monotherapy: MC38 WT tumors, PAK4 inhibitor twice daily from days 4 to 7, P<0.05 days 7, 10 (day 14 only combination)
# Experimental: All mouse studies were performed under UCLA Animal Research Committee protocol #2004-159-23. C57BL/6 mice were bred and kept under defined-flora pathogen-free conditions at the Association for Assessment and Accreditation of Laboratory Animal Care approved animal facility of the Division of Experimental Radiation Oncology, UCLA. To study the in vivo effect of PD-1 blockade in anti-tumor response and immune cell infiltration, we subcutaneously (s.c.) injected 0.3×10^6 B16 PAK4 KO melanoma cells or MC38 PAK4 KO cells into the flanks of C57BL/6 syngeneic mice. 96 hours after tumor injection mice were randomly assigned into the different groups. Anti PD-1 (Cat. No. BE0146, clone RMP1-14, BioXCell, West Lebanon, N.H.) treatment was injected intraperitoneally three times per week at 200 μg per dose. For CD8 depletion studies, we administered anti-CD8 (Cat. No. BE0117, clone YST 169.4, BioXCell) one day before anti-PD1 treatment and then it was co-administered with anti-PD1 for a total of four doses. Splenocytes from control and CD8 depleted mice were taken to validate CD8 depletion efficacy (FIGS. 14-15). To study the combination effects of PAK4 inhibition (KPT-9274) and anti-PD-1 (Cat. No. BE0146, clone RMP1-14, BioXCell) in immune cell infiltration and anti-tumor response, 0.5×10^6 B16 WT or MC38 WT cells were injected s.c. into the flanks of C57BL/6 mice. 96 hours after tumor injection mice were randomly assigned into the different groups. PAK4 inhibitor was administered twice a day by oral gavage at 150 mg/kg while anti-PD-1 treatment was administered as described above. Tumor progression was monitored three times per week by measuring two perpendicular dimensions with a calliper.
# [2] = system: Wnt/β-catenin-mediated transcription in PAK4 KO cells; experiment: Topflash/Fopflash WNT activity luciferase assay, B16 PAK4 KO cells; format: cell-based, murine; conditions: Wnt-3a 200 ng/mL, 8 hours
# Experimental: (§1) For Topflash WNT activity assay cells were plated in 24 well plates and were co-transfected with pSV-β-galactosidase control vector (PR-E1081, Promega, Madison, Wis.) along with either pTopflash (Addgene, Cat. No. 12456) or pFopflash (Addgene, Cat. No. 12457). 24 hours after transfection, cells were treated with Wnt-3a (R&D Systems, Minneapolins, Minn.) at 200 ng/mL. After 8 hours, cells were harvested using Reporter Lysis Buffer (Promega, Cat. No. PR-E4030) and luciferase activity was measured using Bright-Glo Luciferase Assay System (Promega, Cat. No. PR-E2610) and Beta-Glo Assay System (Promega, Cat. No. PR-E4720). Luciferase activity was normalized to its corresponding Beta-Glo activity to account for transfection efficiency.
# [3] = system: Wnt/β-catenin-mediated transcription in B16 WT CRISPR control cells; experiment: Topflash/Fopflash WNT activity luciferase assay, B16 WT CRISPR control cells; format: cell-based, murine; conditions: Wnt-3a 200 ng/mL, 8 hours
# Experimental: as §1
Molecule,tumor growth versus anti-PD-1 monotherapy ([1]; listed as PAK4i),tumor growth versus anti-PD-1 monotherapy ([1]; listed as PAK4 inhibitor),"PAK4 inhibitor associated toxicity ([1]; mice bearing MC38 WT tumors, PAK4 inhibitor 150 mg/kg twice daily oral gavage, days 4 to 7)",induction of Topflash luciferase activity ([2]; PAK4 KO cells versus B16 WT control),Fopflash luciferase activity (mutant TCF-binding sites) ([2]; PAK4 KO cells),Topflash luciferase activity ([3]; B16 WT CRISPR control cells),Fopflash luciferase activity (mutant TCF-binding sites) ([3]; B16 WT cells)
Nc1ccc(/C=C/C(=O)NCc2cc3cc(-c4ccc(C(=O)N5CCC(F)(F)CC5)cc4)cc(-c4ccc(F)cc4)c3o2)cn1 [KPT-9274],significant decreased tumor growth compared to anti-PD-1 alone,decreased tumor growth compared to the anti-PD-1 monotherapy group,discontinued due to PAK4i associated toxicity,,,,
"Wnt-3a: Wnt-3a (R&D Systems), used at 200 ng/mL (protein, UniProt P56704 19-352, looked up) Protein Wnt-3a: SYPIWWSLAVGPQYSSLGSQPILCASIPGLVPKQLRFCRNYVEIMPSVAEGIKIGIQECQHQFRGRRWNCTTVHDSLAIFGPVLDKATRESAFVHAIASAGVAFAVTRSCAEGTAAICGCSSRHQGSPGKGWKWGGCSEDIEFGGMVSREFADARENRPDARSAMNRHNNEAGRQAIASHMHLKCKCHGLSGSCEVKTCWWSQPDFRAIGDFLKDKYDSASEMVVEKHRESRGWVETLRPRYTYFKVPTERDLVYYEASPNFCEPNPETGSFGTRDRTCNVSSHGIDGCDLLCCGRGHNARAERRREKCRCVFHWCCYVSCQECTRVYDVHTCK",,,,significantly reduced,did not induce,significantly induced,did not induce
